Results as given in publication PMC11865472 (2025).
Residue numbers refer to the chain shown, from its start. Names may count otherwise.

T1: biotinylated TGF-β2 homodimer (human, biotin (EZ-Link Amine-PEG3-Biotin coupled with EDC and sulfo-NHS))
T1 chain: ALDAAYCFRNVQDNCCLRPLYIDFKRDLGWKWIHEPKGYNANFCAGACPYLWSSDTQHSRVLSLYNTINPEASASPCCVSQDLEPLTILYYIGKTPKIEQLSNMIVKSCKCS

T2: inhibin A (InhA), mature heterodimer, unlabelled (UniProt P05111 233-366; P08476 311-426)
T2 chain 1: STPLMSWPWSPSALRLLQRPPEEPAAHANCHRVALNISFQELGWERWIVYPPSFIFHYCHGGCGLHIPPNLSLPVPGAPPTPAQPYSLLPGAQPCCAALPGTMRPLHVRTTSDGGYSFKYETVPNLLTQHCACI
T2 chain 2: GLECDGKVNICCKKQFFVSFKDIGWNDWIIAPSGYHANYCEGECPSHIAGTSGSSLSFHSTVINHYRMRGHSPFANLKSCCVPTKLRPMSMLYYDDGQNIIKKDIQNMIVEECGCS

B1: TGF-β2 on the chip with ratBGO-Y248A bound (1 µM ratBGO-Y248A in the buffer) (complex)
chain 1: T1 chain
chain 2: GSPCELSPINASHPVQALMESFTVLSGCASRGTTGLPREVHVLNLRSTDQGPGQRQREVTLHLNPIASVHTHHKPIVFLLNSPQPLVWHLKTERLAAGVPRLFLVSEGSVVQFPSGNFSLTAETEERNFPQENEHLLRWAQKEYGAVTSFTELKIARNIYIKVGEDQVFPPTCNIGKNFLSLNYLAEYLQPKAAEGCVLPSQPHEKEVHIIELITPSSNPASAFQVDIIVDIRPAQEDPEVVKNLVLILKCKKSVNWVIKSFDVKGNLKVIAPNSIGFGKESERSMTMTKLVRDDIPSTQENLMKWALDNGYRPVTSYTMAPVANRFHLRLENHHHHHH
B2: TGF-β2 on the chip with zfBGO bound (1 µM zfBGO in the buffer) (complex)
chain 1: T1 chain
chain 2: GSPCELLPVGVGHPVQAMLKSFTALSGCASRGTTSHPQEVHIINLRKGSAQGAREKTAEVALHLRPIQSLHVHQKPLVFILNSPQPILWKVRTEKLAPGVKRIFHVVEGSEVHFEVGNFSKSGEVKVETLPHGNEHLLNWAHHRYTAVTSFSELRMAHDIYIKVGEDPVFSETCKIDNKFLSLNYLASYIEPQPSTGCVLSGPDHEQEVHIIELQAPNSSSAFQVDVIVDLRPLDGDIPLHRDVVLLLKGEKSVNWVIKAHKVMGKLEIMTSDTVSLSEDTERLMQVSKTVKQKLPAGSQALIQWAEENGFNPVTSYTNTPVANHFNLRLREHHHHHH
B3: TGF-β2 on the chip with ratBGO bound (1 µM ratBGO in the buffer) (complex)
chain 1: T1 chain
chain 2: B1 chain 2 with A221Y
B4: rat betaglycan ZP-C domain (BG_(ZP-C)), mammalian-expressed (domain or fragment)
chain: GNATFNMELYNTDLFLVPSPGVFSVAENEHVYVEVSVTKADQDLGFAIQTCFLSPYSNPDRMSDYTIIENICPKDDSVKFYSSKRVHFPIPHAEVDKKRFSFLFKSVFNTSLLFLHCELTLCSRKKGSLKLPRCVTPDDACTSLDATMIWTMMQNKKTFTKPLAVVLQ
B5: BGZP-C S155A (protein)
chain: B4 chain with S143A
B6: TGF-β2 on the chip with ratBGO-zfBL bound (1 µM ratBGO-zfBL in the buffer) (complex)
chain 1: T1 chain
chain 2: GSPCELSPINASHPVQALMESFTVLSGCASRGTTGLPREVHVLNLRSTDQGPGQRQREVTLHLNPIASVHTHHKPIVFLLNSPQPLVWHLKTERLAAGVPRLFLVSEGSVVQFPSGNFSLTAETEERNFPQENEHLLRWAQKEYGAVTSFTELKIARNIYIKVGEDQVFPPTCNIGKNFLSLNYLAEYLQPKAAEGCVLPSQPHEKEVHIIELITPNSSSAFQVDIIVDIRPAQEDPEVVKNLVLILKCKKSVNWVIKSFDVKGNLKVIAPNSIGFGKESERSMTMTKLVRDDIPSTQENLMKWALDNGYRPVTSYTMAPVANRFHLRLENHHHHHH
B7: BGZP-C E130A (protein)
chain: B4 chain with E118A
B8: TGF-β2 homodimer (growth factor domain), unlabelled (ligand)
chain: T1 chain

Experiments:
[1] = target: T3, TGF-β receptor type II (TGFBR2), extracellular domain (UniProt P37173 23-166); assay: SPR; 1 µM ratBGO-Y248A
[2] = target: T3, TGF-β receptor type II (TGFBR2), …; assay: SPR; 1 µM zfBGO
[3] = target: T3, TGF-β receptor type II (TGFBR2), …; assay: SPR; 1 µM ratBGO
[4] = target: T1, biotinylated TGF-β2 homodimer; assay: SPR
[5] = target: T2, inhibin A (InhA), mature heterodimer, …; assay: SPR
[6] = target: B8; assay: SPR
[7] = target: T3, TGF-β receptor type II (TGFBR2), …; assay: SPR; 1 µM ratBGO-zfBL
[8] = target: T3, TGF-β receptor type II (TGFBR2), …; assay: SPR

With B1 the Kd [1] was greater than 10000 nM.

B2 gave a Kd [2] greater than 10000 nM.

With B3 the Kd [3] was 1780 nM.

B4 gave a Kd [4] of 159 nM, a Kd [5] of 1070 nM and a Kd [6] of 127 nM.

B5 showed a Kd [4] of 282 nM.

Binder B6 has a Kd [7] greater than 10000 nM.

Binder B7 has a Kd [4] of 1350 nM.

B8 showed a Kd [8] greater than 10000 nM.
